T1: MPDZ_12, O75970
T1 sequence (O75970 1857-1958, limits assumed, looked up): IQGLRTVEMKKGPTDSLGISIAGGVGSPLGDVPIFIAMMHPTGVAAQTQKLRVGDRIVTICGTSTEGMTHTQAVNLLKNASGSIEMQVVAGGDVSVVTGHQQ

T2: ARHGAP21, Q5T5U3
T2 sequence (Q5T5U3 45-169, limits assumed, looked up): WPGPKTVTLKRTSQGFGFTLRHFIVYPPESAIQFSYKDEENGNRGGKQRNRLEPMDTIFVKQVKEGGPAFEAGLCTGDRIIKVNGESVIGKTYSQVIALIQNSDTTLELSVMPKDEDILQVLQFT

T3: MPP2, Q14168
T3 sequence (Q14168 180-250, limits assumed, looked up): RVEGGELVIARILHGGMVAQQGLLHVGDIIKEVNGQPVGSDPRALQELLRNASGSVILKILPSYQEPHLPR

T4: PCLO, Q9Y6V0
T4 sequence (Q9Y6V0 4491-4600, limits assumed, looked up): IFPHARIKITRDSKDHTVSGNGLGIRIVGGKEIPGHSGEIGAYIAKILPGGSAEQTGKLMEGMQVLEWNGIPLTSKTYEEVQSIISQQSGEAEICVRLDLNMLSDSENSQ

T5: LIN7B, Q9HAP6
T5 sequence (Q9HAP6 88-185, limits assumed, looked up): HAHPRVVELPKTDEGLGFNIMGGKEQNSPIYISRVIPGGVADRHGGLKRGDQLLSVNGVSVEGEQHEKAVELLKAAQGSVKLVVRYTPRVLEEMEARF

T6: APBA3_1, O96018
T6 sequence (O96018 389-490, limits assumed, looked up): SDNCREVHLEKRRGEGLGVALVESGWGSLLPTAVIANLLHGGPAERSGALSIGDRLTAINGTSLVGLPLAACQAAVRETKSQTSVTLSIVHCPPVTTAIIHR

T7: LRRC7, Q96NW7
T7 sequence (Q96NW7 1440-1537, limits assumed, looked up): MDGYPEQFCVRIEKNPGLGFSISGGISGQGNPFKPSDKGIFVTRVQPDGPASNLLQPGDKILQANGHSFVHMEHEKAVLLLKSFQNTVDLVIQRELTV

T8: SHANK1, Q9Y566
T8 sequence (Q9Y566 658-767, limits assumed, looked up): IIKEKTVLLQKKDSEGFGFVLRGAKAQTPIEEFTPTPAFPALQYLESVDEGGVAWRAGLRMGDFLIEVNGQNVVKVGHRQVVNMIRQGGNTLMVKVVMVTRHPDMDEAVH

T9: PTPN13_1, Q12923
T9 sequence (Q12923 1088-1188, limits assumed, looked up): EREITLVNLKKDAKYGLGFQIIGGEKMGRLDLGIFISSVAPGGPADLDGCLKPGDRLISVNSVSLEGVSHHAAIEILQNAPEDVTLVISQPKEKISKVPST

T10: ARHGEF11, O15085
T10 sequence (O15085 42-136, limits assumed, looked up): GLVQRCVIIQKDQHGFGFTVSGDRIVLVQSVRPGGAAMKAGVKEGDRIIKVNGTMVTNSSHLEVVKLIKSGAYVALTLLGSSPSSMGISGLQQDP

T11: RADIL, Q96JH8
T11 sequence (Q96JH8 971-1071, limits assumed, looked up): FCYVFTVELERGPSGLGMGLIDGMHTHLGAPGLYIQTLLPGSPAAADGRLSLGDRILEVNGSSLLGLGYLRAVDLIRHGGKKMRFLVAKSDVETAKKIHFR


Key:
Test in all cases: holdup assay
Design in all cases: key: below the threshold = too weak to quantify, mostly under pKd 3.1 to 4
Conditions in all cases: plain residues with an end cap or a label only (N-terminal biotin on a linker: ttds)
MPDZ_12, O75970 = target: T1, MPDZ_12, O75970
ARHGAP21, Q5T5U3 = target: T2, ARHGAP21, Q5T5U3
MAST2, Q6P0Q8 = target: MAST2, Q6P0Q8
IL16_3, Q14005 = target: IL16_3, Q14005
Inadl_5, Q8NI35 = target: Inadl_5, Q8NI35
CASK, O14936 = target: CASK, O14936
MPP2, Q14168 = target: T3, MPP2, Q14168
PCLO, Q9Y6V0 = target: T4, PCLO, Q9Y6V0
LIN7B, Q9HAP6 = target: T5, LIN7B, Q9HAP6
APBA3_1, O96018 = target: T6, APBA3_1, O96018
ARHGEF12, Q9NZN5-2 = target: ARHGEF12, Q9NZN5-2
DLG5_1, Q8TDM6 = target: DLG5_1, Q8TDM6
Inadl_2, Q8NI35 = target: Inadl_2, Q8NI35
LRRC7, Q96NW7 = target: T7, LRRC7, Q96NW7
NHERF4_2, Q86UT5 = target: NHERF4_2, Q86UT5
GRIP2_4, Q9C0E4 = target: GRIP2_4, Q9C0E4
MAGI1_1, Q96QZ7 = target: MAGI1_1, Q96QZ7
FRMPD4, Q14CM0 = target: FRMPD4, Q14CM0
SHANK1, Q9Y566 = target: T8, SHANK1, Q9Y566
PTPN3, P26045 = target: PTPN3, P26045
TJP1_2, Q07157 = target: TJP1_2, Q07157
PICK1, Q9NRD5 = target: PICK1, Q9NRD5
Inadl_10, Q8NI35 = target: Inadl_10, Q8NI35
PTPN13_1, Q12923 = target: T9, PTPN13_1, Q12923
HTRA1, Q92743 = target: HTRA1, Q92743
ARHGEF11, O15085 = target: T10, ARHGEF11, O15085
RADIL, Q96JH8 = target: T11, RADIL, Q96JH8

Sequence of NHERF4_2, Q86UT5 (Q86UT5 220-308): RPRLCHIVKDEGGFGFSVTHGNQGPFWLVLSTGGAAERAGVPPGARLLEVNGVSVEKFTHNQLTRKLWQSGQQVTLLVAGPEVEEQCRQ
Sequence of Inadl_5, Q8NI35 (Q8NI35 673-780): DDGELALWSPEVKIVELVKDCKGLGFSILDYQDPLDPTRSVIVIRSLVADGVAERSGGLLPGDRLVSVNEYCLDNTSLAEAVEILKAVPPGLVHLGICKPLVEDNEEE
Sequence of MAST2, Q6P0Q8 (Q6P0Q8 1099-1202): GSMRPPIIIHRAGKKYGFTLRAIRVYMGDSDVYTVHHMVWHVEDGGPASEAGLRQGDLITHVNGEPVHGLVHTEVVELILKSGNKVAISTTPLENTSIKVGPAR
Sequence of Inadl_10, Q8NI35 (Q8NI35 1673-1763): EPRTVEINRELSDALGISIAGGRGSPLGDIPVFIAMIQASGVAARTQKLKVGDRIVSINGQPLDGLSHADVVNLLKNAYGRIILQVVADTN
Sequence of PTPN3, P26045 (P26045 505-587): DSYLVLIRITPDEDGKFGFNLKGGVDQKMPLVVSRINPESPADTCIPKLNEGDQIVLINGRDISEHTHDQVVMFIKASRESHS
Sequence of TJP1_2, Q07157 (Q07157 181-274): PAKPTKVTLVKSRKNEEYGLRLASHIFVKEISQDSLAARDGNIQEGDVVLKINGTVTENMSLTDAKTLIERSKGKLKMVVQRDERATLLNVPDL
Sequence of CASK, O14936 (O14936 487-570): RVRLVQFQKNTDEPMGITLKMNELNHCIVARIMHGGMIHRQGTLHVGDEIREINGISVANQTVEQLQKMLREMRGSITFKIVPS
Sequence of IL16_3, Q14005 (Q14005 1107-1207): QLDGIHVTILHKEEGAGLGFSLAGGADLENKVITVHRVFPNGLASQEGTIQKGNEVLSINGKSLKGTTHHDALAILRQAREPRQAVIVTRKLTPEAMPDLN
Sequence of PICK1, Q9NRD5 (Q9NRD5 17-115): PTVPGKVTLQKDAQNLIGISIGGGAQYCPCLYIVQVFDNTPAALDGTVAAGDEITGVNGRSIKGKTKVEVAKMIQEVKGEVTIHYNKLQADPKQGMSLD
Sequence of FRMPD4, Q14CM0 (Q14CM0 67-160): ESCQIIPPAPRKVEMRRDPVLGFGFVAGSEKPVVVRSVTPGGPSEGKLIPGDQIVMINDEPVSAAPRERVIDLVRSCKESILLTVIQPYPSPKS
Sequence of DLG5_1, Q8TDM6 (Q8TDM6 617-713): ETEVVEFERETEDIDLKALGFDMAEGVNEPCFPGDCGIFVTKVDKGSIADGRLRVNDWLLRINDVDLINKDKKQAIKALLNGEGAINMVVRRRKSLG
Sequence of Inadl_2, Q8NI35 (Q8NI35 238-335): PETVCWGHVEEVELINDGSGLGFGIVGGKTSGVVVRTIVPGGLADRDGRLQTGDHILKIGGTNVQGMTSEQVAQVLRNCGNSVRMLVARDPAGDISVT
Sequence of GRIP2_4, Q9C0E4 (Q9C0E4 446-548): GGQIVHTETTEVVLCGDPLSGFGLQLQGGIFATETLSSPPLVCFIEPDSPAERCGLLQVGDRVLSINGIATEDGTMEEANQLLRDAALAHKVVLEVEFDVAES
Sequence of HTRA1, Q92743 (Q92743 360-477): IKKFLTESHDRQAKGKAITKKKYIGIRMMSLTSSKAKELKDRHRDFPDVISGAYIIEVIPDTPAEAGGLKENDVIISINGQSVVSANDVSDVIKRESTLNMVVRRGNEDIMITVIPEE
Sequence of ARHGEF12, Q9NZN5-2 (Q9NZN5 other isoform, or with tags, fused parts or gaps): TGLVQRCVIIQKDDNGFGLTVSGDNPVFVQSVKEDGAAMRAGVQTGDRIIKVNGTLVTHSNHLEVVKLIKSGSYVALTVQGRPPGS
Sequence of MAGI1_1, Q96QZ7 (Q96QZ7 1-106): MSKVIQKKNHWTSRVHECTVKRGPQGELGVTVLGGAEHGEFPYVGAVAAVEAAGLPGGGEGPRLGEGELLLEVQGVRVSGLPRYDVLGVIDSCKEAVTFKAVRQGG

| pKd (MPDZ_12, O75970) | pKd (ARHGAP21, Q5T5U3) | pKd (MAST2, Q6P0Q8) | pKd (IL16_3, Q14005) | pKd (Inadl_5, Q8NI35) | pKd (CASK, O14936) | pKd (MPP2, Q14168) | pKd (PCLO, Q9Y6V0) | pKd (LIN7B, Q9HAP6) | pKd (APBA3_1, O96018) | pKd (ARHGEF12, Q9NZN5-2) | pKd (DLG5_1, Q8TDM6) | pKd (Inadl_2, Q8NI35) | pKd (LRRC7, Q96NW7) | pKd (NHERF4_2, Q86UT5) | pKd (GRIP2_4, Q9C0E4) | pKd (MAGI1_1, Q96QZ7) | pKd (FRMPD4, Q14CM0) | pKd (SHANK1, Q9Y566) | pKd (PTPN3, P26045) | Binder | also measured |
| --- | --- | --- | --- | --- | --- | --- | --- | --- | --- | --- | --- | --- | --- | --- | --- | --- | --- | --- | --- | --- | --- |
| below the threshold | 3.61 | 4.7 | below the threshold | below the threshold | below the threshold | below the threshold | below the threshold | below the threshold | below the threshold | below the threshold | below the threshold | below the threshold | below the threshold | below the threshold | below the threshold | below the threshold | 3.78 | below the threshold | 4.48 | PKTPPTDTSV [KIR3DL3, Q8N743] | pKd (TJP1_2, Q07157): below the threshold; pKd (PICK1, Q9NRD5): below the threshold; pKd (Inadl_10, Q8NI35): below the threshold; pKd (PTPN13_1, Q12923): below the threshold; pKd (HTRA1, Q92743): below the threshold; pKd (ARHGEF11, O15085): below the threshold; pKd (RADIL, Q96JH8): below the threshold |
| below the threshold | below the threshold | 4.61 | below the threshold | below the threshold | below the threshold | below the threshold | below the threshold | below the threshold | below the threshold | 3.65 | below the threshold | below the threshold | below the threshold | below the threshold | below the threshold | below the threshold | below the threshold | below the threshold | 4.94 | TVASEKESVM [SLC1A5, Q15758] | pKd (TJP1_2, Q07157): below the threshold; pKd (PICK1, Q9NRD5): below the threshold; pKd (Inadl_10, Q8NI35): below the threshold; pKd (PTPN13_1, Q12923): below the threshold; pKd (HTRA1, Q92743): 3.86; pKd (ARHGEF11, O15085): 3.56; pKd (RADIL, Q96JH8): below the threshold |
